Results: the RNAGym collection of RNA variant scans (doi:10.1073/pnas.2313332121)
Variants at the floor of the assay were thinned out.

B1: TPR 5TU (parent)
chain: GGAUCUUCUCGAUCUAACAAAAAAGACAAAUCUGCCACAAAGCUUGAGAGCAUCUUCGGAUGCAGAGGCGGCAGCCUUCGGUGGCGCGAUAGCGCCAACGUUCUCAACUAUGACACGCAAAACGCGUGCUCCGUUGAAUGGAGUUUAUCAUG

Variants of: B1
Test: polymerase ribozyme fitness, log enrichment relative to wild type (log ratio); higher = more active; in vitro selection for triplet polymerase activity
Outline: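 Each subunit of a heterodimeric triplet polymerase ribozyme was mutagenized into a library by PCR, transcribed, and subjected to one round of in vitro selection, run in triplicate. Libraries were annealed with a biotinylated primer, the partner subunit and triplets, incubated frozen at −7 °C, and extended constructs were gel-excised, captured on streptavidin beads and recovered by RT-PCR. Input and output libraries were sequenced on Illumina, keeping genotypes with ≥10 input reads and ≥1 read per output. Fitness is log base 2 of genotype enrichment divided by wild-type enrichment, from inverse-variance-weighted replicate averages.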

Row | Variant | polymerase ribozyme fitness (log ratio)
1 | GGAUCUUCACGAUCUAACAAAAAAGACAAAUCUGCCACAAAGCUUGAGAGCAUCUUCGGAUGCAGAGGCGGCAGCCUUCGGUGGCGCGAUAGCGCCAACGUUCUCAACUAUGACACGCAAAACGCGUGCUCCGUUGAAUGCAGUUUAUCAUG [U9A G141C] | -3.23
2 | GGAUCUUCACGAUCAAACAAAAAAGACAAAUCUGCCACAAAGCUUGACAGGAUCUUCGGAUGCAGAGGCGGCAGCCUUCGGUGACGCGAUAGCGCCAACGUUCUCAACUAUGACACGCAAAACGCGUGCUCCGUUGAAUGGAGUUUAUCAUG [U9A U15A G48C C51G G84A] | ≤ -4.2
3 | GGAUCUUCACGAUCUAACAAAAAAGACAAAUCUGCCACAAAGCUUGAGAGCAUCUUCGGAUGCAGAGGCGGCAGCCUUCGGUGGCGCGAUCGCGCCAACGUUCUCAACUAUGACAGGCAAAACGCGUGCUCCGUUGAAUGGAGUUUAACAUG [U9A A91C C116G U148A] | -3.93
4 | GGAUCUUCACGAUCUAACAAAAAAGACAAAUCUGCCACAAAGCUUGAGAGCAUCUUCGGAUGCAGAGGCGGCAGCCUUCGGUGGCACGAUAGUGCCAACGUUCUCAACUAUGACACGCAAAACGCGUGCUCCGUUGAAUGCAGUUUAUCAUG [U9A G86A C93U G141C] | ≤ -4.2
5 | GGAUCUUCACGAUUUAACAAAAAAGACAAAUCUGCCACAAAGCUUGAGUGUAUCUUCGGAUGCAGAGGCGGCAGCCUUCGGUGGCUCGUUAGCGCCAACGUUCUCAACUAUGACACGCAAAACGCGUGCUCCGUUGAAUGGAGUUUAUCAUG [U9A C14U A49U C51U G86U A89U] | ≤ -4.2
6 | GGAUCUUCACGAUCUAACAAAAAAGACAAAUCUGCCACAAAGCUUGAGAGCAUCUUCGGAUGCAGAGGCGGCGGCCUUCGGUGGCGCGAUAGCGCCAACGUUCUCAACUAUGACACGCAAAACGCGUGCUCCGUUGAAUGGAGUUUAUCAUG [U9A A73G] | ≤ -4.2
7 | GGAUCUUCACGAUCUAACAAAAAAGACAAAUCUGCCACAAGGCUUGAGAGCAUCUUCGGAUGCAGAGGCGGCAGCCUUCGGUGGCGCGAUUGCGAGAACGUGCUCAACUAUGACACGCAAAACGCGUGCUCCAUCGAAUGGAGUUUAUCAUG [U9A A41G A91U C95A C96G U102G G133A U135C] | ≤ -4.2
8 | GGAUCUUCAUGAUCUAACAAAAAAGACAAAUCUGCCACAAAGCUUGAGAGCAUCUUCGGAUGCAGAGGCGGCAGACUUCGGUGGCGAGAUAGCGCCAACGUUCUCAACUGUGACACGCCAAACGCGUGCUCCGUUGAAUGGAGUUUAUCAUG [U9A C10U C75A C87A A110G A119C] | ≤ -4.2
9 | GGAUCUUCACGAUCUAACAAAAAAGACAAAUCUGCCACAAAGCUUGAGAGCAUCUUCGGAUGCAGAGGCGGCAGCUUUCGGUGGUGCGAUAGCGCCAACGUUCUCAACUAUGACACGCAAAACGCGUGCUCUCUUGAAUGGAGUUUAUCAUG [U9A C76U C85U C132U G133C] | ≤ -4.2
10 | GGAUCUUCACGAUCUAACAAAAAAGACAAAUGUGCCACAAAGCUUGAGAGCAUAUUCGGAUGCAGAGGCGGCAGCCUUCGGUGGCCCGAUAGCGCCAACGUUCUCAACGAUGACACGCAAAACGCGUGCUCCGUUAAAUGGAGUUUAUCAUG [U9A C32G C54A G86C U109G G136A] | ≤ -4.2
11 | GGAUCUUCACAAUUUAACGAAAAAGACAAAUCUGCCACAAAGCUUGAGAGCAUCUUCGGAUGCAGAGGCGGCAGCAUUCGGGGGCGCGAUAGCGCCAACGUUAUCAACUAUGACAUGCAAAACGCGUGCUCCGUUGAAUGGAGUUUAUCAUG [U9A G11A C14U A19G C76A U82G C103A C116U] | ≤ -4.2
12 | GGAUCUUCACGAGCUAACAAAAAAGACAAAUCUGCCACAAAUCUUGAGAGCAUCUUCGGAAGCAGAGGCGGCAGCCUUCGGUGGCGCGAUUGCGCCAACGUUCUCGACUAUGACACGCAAAACGCGUGCUCCGUUGAAUGGCGUUUAUCAUG [U9A U13G G42U U61A A91U A106G A142C] | ≤ -4.2
13 | GGAUCUUCACGAUCAAACAAAAAAGACAAAUCUGCCACAAAGCUUGAGAGCAUCUUCGGAUGCAGAGGCGGCAGCCUUCGGUGGCGCGAUAGUGCCAACGUUGUCAACUAUGACACGCAAAACGCGUGCUCCGUUGAAUGGAGUUUAUCAUG [U9A U15A C93U C103G] | ≤ -4.2
14 | GGAUCUUCACGAUCUAACAAAAAAGACAAAUCUGCCACAAAGCUUGAGAGCAUCUUCGGAUGCAGAGGCGGCAGCCUUCGGUGGCGCGAUAGCGCCAACGUUCUCAACUAUGACACGCAAAACGCGUCCUCCGUUGAAAGGAGUUUAUCAUG [U9A G128C U139A] | ≤ -4.2
15 | GGAUCUUCACGAUCUAACAAAAAAGACAAAUCUGCCACAAAGCUUGAGAGCAUCUUCGGAUGCAGAGGCGGCAGCCUUCGGUGGCGCGAUAGCGCCAACGUUCUCAACUAUGACACGCAAAACGGGUGCUCCGUUGAAUGGAGUUUAUCAUG [U9A C125G] | ≤ -4.2
16 | GGAUCUUCACGAUCUAACAAAAAAGACAAAUAUGCCACAAAGCUUGAGAGCAUCGUCGGAUGCAGAGGCGGCAGCCUUCGGUGGCGCUAUAGCGCCAACGUUCUCAACAAUGACACGCAAAACGCGUGCUCCGUUGAAUGGAGUUUAUCAUG [U9A C32A U55G G88U U109A] | ≤ -4.2
17 | GGAUCUUCACGAUCUAACAAAAAAGACAAAUAGGCCACAAAGCUUGAGUGUAAUUUCGGAUGCAGAGGCGGCAGCCUUCGGUGUCGCGAUAGCGCCAACGUUAUCAAGUAUGACACGGAAAACGCGUGCUCCGUUGAAUGGAGUUUAUUAUG [U9A C32A U33G A49U C51U U53A C54U G84U C103A C108G C118G C149U] | ≤ -4.2
18 | GGAUCUUCACGAUCCAACAAAAAAGACAAAUCUGUCACAAAGCUUGAGAGCAUCUUCGGAUGCAGAGGCGAUAGCCGUCGGUGGCGAGAUAGCGCCAACGUUCUCAACUAUGACACGCUAAACCCGUGCUCCGUUGAAUGGAGUUUAUCAUG [U9A U15C C35U G71A C72U U77G C87A A119U G124C] | ≤ -4.2
19 | GGAUCUUCACGAGCUAACAAAAAAGACAAAUGUGCCACAAAGCUUGAGAGGAUCUUCGGAUGCAGAGGCUGCAGCCUUCGGUGGCGCGAUAGCGCCAACGUUCUCAACUAUGACACGCAAAACGCGGGCUCCGUUGAAUGGAGUUUAUCAUG [U9A U13G C32G C51G G70U U127G] | ≤ -4.2
